Our source for the Kd, koff and kon values is US20240059770A1 (Eli Lilly, published 2024).

By Kd is commonly meant the free concentration of one partner at which half of the binding sites on the other are occupied at equilibrium, for simple one-to-one binding. Low readings indicate a tighter complex, high ones a looser complex. By koff is commonly meant the first-order rate constant of dissociation. Low values mean slow dissociation, high ones fast dissociation. One may read the kon as the rate constant with which the complex forms.

This assay concerns the target T1, human oxyntomodulin (53-89) (human).
T1 construct: also called synthetic human oxyntomodulin
T1 peptide: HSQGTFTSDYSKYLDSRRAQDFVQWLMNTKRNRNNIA
The experiment in a line: SPR (Biacore T100), antibody captured by anti-mouse IgG, oxyntomodulin 1.1-90 nmol/L as analyte, 1:1 model. The procedure: Kinetic analysis and binding specificity of the N-Terminal Antibody and the C-Terminal Antibody are determined by surface plasmon resonance using Biacore T100 (GE Healthcare Life Sciences). Goat anti-mouse IgG antibody (Southern Biotech) is immobilized on a Series S CM5 sensor chip and used to capture approximately 1500 response units of anti-oxyntomodulin IgG. Binding to duplicate injections of various concentrations of human oxyntomodulin (SEQ ID NO: 25) (1.1 to 90 nmol/L) diluted in running buffer (HEPES buffered saline containing 3 mmol/L EDTA and 0.05% Tween) and 22.5 nmol/L of either human glicentin span (49-89) (SEQ ID NO: 29) or human glucagon (53-81) (SEQ ID NO: 30) peptides are measured with a flow rate of […]. Kinetic constants are determined using 1:1 binding model with the T100 Evaluation software.
Using Biacore analysis of the N-Terminal Antibody, the equilibrium dissociation constant is 1.5×10⁻¹⁰ mol/L (Table 2).
(In general: In SPR one partner is held on a chip, and binding of the other changes the refractive index at the surface.)

B1: Anti-Human Oxyntomodulin C-Terminal Antibody (antibody, V domains shown)
VH: QVQVQQSGAELVMPGTSVKLSCKASGYNFTNYWLHWVKQRPGQGLEWIGELDPEYGFANYNQKFKGKATLTVDKSSSTAYMQLSSLTSEDSAVYYCSAGFMDYWGQGTSVTVSS
VL: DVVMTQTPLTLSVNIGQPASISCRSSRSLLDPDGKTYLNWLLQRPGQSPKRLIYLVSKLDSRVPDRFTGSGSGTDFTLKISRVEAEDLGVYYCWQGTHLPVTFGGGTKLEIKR
notes: In SPR it was captured as IgG by goat anti-mouse IgG; In the sandwich immunoassay it was biotin-labelled and held on streptavidin plates; also called capture antibody
In turn, B1 registered a Kd of 0.083 nM, a koff of 0.00086 s⁻¹ and a kon of 1e+07 M⁻¹ s⁻¹.

B2: Anti-Human Oxyntomodulin N-Terminal Antibody (antibody, V domains shown)
VH: QIQLVQSGPELKKPGETVKISCKASGYTFTDYAFSWVKQAPGKGLKWMGWITTNTGEATYADDFKGRFAFSLETSASTAYLQISNLKNEDTATYFCARETEYGDSSWFGHWGQGTLVTVSA
VL: DIVLTQSPASLAVSLGQRATISCRASESVDGWGNSFMHWYQQKPGQPPKLLIYLATYRVAGIPARFSGSGSRTDFTLTINPVEADDVATYYCMQSSEDPYTFGGGTKLEIKR
notes: In SPR it was captured as IgG by goat anti-mouse IgG; In the sandwich immunoassay it was ruthenium-labelled; also called detection antibody
Turning to B2, the Kd was 0.15 nM, the koff was 0.001 s⁻¹ and the kon turned out to be 7.2e+06 M⁻¹ s⁻¹.
